8 substances from patent publication US20210253697A1 can be followed below.

Test [1] deals with human TREM-1 on cells (BWZ/hTREM-1 reporter cells, PBMCs, macrophages, neutrophils, monocytes, synovial tissue cells) (human) (UniProt Q9NP99). Nature of the test: cell-based or functional assay.
Test [2] concerns the target human TREM-1 (hTREM-1 protein, SPR analyte of Examples 9 and 11) (human) (UniProt Q9NP99). Put plainly: SPR, mAb captured, hTREM-1 analyte (Example 11). In general terms: Surface plasmon resonance follows binding to a sensor surface in real time, without labels.
Test [3] concerns the target T1, cynomolgus monkey TREM-1 on cells (reporter cells, PBMCs, macrophages) (cynomolgus monkey).
T1 sequence: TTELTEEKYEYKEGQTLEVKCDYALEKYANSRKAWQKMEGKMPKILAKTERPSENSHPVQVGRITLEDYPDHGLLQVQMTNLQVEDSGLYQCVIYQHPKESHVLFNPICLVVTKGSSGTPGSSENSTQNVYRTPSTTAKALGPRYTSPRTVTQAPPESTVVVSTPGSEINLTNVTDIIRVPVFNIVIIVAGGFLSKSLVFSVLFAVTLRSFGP
Nature of the test: cell-based or functional assay.

The target in test [4] is cynomolgus TREM-1 (cTREM-1 protein, SPR analyte of Examples 9 and 11) (cynomolgus monkey). Put plainly: SPR, mAb captured, cTREM-1 analyte (Example 11).

Sequence of human TREM-1 on cells (BWZ/hTREM-1 reporter cells, PBMCs, macrophages, neutrophils, monocytes, synovial tissue cells) (human) (Q9NP99 21-234 limits assumed): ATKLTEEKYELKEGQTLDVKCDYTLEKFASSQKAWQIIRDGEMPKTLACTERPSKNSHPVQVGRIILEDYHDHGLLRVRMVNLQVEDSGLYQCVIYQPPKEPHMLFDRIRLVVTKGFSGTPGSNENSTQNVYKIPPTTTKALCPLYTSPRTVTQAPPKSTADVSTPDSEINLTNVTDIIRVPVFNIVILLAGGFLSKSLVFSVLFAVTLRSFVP
Sequence of human PGLYRP1 (O75594 22-196 limits assumed): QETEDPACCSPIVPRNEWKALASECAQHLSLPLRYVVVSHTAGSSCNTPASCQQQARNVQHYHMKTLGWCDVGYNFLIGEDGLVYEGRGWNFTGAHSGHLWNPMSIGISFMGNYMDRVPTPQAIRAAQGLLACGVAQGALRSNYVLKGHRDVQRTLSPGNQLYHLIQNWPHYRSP
Sequence of human TREM-1 (hTREM-1 protein, SPR analyte of Examples 9 and 11) (human) (Q9NP99 21-200 limits assumed): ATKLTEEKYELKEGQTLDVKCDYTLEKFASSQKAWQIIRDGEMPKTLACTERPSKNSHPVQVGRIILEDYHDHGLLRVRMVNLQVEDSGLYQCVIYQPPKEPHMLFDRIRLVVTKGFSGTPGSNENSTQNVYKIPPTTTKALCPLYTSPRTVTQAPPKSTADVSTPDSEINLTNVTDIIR

For the substance “MAB1278 (R&D Systems, cat. no. MAB1278) (antibody)”, in test [1], the BWZ/hTREM-1 reporter signal, RA synovial fluid, mAb 0.1 ug/ml, assay 1 was 829000; the BWZ/hTREM-1 reporter signal, RA synovial fluid, mAb 0.1 ug/ml, assay 2 came to 691000; the BWZ/hTREM-1 reporter signal, RA synovial fluid, mAb 1 ug/ml, assay 1 was 1.19e+06; the BWZ/hTREM-1 reporter signal, RA synovial fluid, mAb 1 ug/ml, assay 2 was 1.02e+06. For the same substance, in test [1], the BWZ/hTREM-1 reporter signal, RA synovial fluid, mAb 10 ug/ml, assay 1 is 1.08e+06; the BWZ/hTREM-1 reporter signal, RA synovial fluid, mAb 10 ug/ml, assay 2 came to 1.05e+06; the IL-6, M2 macrophages on platebound mAb 2 µg/ml, Avg was 412 pg/mL; the IL-6, M2 macrophages on platebound mAb 6 µg/ml, Avg was determined as 877 pg/mL. Moreover, in test [1], the IL-6, M2 macrophages on platebound mAb 20 µg/ml, Avg was determined as 1350 pg/mL; the Luminescence × 10E6, BWZ/hTREM-1 reporter cells + activated neutrophils worked out at 1e+07 luminescence; the TNFa, M2 macrophages on platebound mAb 2 µg/ml, Avg worked out at 2000 pg/mL; the TNFa, M2 macrophages on platebound mAb 6 µg/ml, Avg turned out to be 6450 pg/mL. Further, in test [1], the TNFa, M2 macrophages on platebound mAb 20 µg/ml, Avg is 7750 pg/mL; the induction of NFAT-driven LacZ production, 1-10 µg/ml plate bound antibody was found to be 40 fold; the induction of reporter luminescence, platebound antibody (FIG. 2) came out at 32 fold; the normalised reporter signal, antibody at 1 µg/ml (FIG. 3) was over 1.

As usually defined, the Kd is the equilibrium constant for the complex coming apart. As for “TREM-37 (Biolegend, cat. no. 316102) (antibody)”, the Kd in test [2] amounted to 0.8 nM. Moreover, in test [1], the % remaining activity at 0.003 µg/ml, BWZ/hTREM-1 reporter assay was 98%; the % remaining activity at 0.03 µg/ml, BWZ/hTREM-1 reporter assay was 103%; the % remaining activity at 0.3 µg/ml, BWZ/hTREM-1 reporter assay turned out to be 90%; the Luminescence × 10E6, BWZ/hTREM-1 reporter cells + activated neutrophils was 6.1e+06 luminescence. Moreover, the normalised reporter signal, antibody at 1 µg/ml (FIG. 3) in test [1] was over 1.

Take “Sigma #SAB1405121 (clone 3F5) (antibody)”: in test [1], the % remaining activity at 0.003 µg/ml, BWZ/hTREM-1 reporter assay worked out at 104%; the % remaining activity at 0.03 µg/ml, BWZ/hTREM-1 reporter assay turned out to be 101%; the % remaining activity at 0.3 µg/ml, BWZ/hTREM-1 reporter assay is 97%.

In the case of “SC98Z12 (Santa Cruz Biotechnology, sc-80394, clone 98Z12) (antibody)”, in test [2], the dissociation constant Kd was 30 nM. Besides, in test [1], the % remaining activity at 0.003 µg/ml, BWZ/hTREM-1 reporter assay is 120%; the % remaining activity at 0.03 µg/ml, BWZ/hTREM-1 reporter assay turned out to be 134%; the % remaining activity at 0.3 µg/ml, BWZ/hTREM-1 reporter assay turned out to be 131%.

In test [2], “Sigma #WH0054210M4 (clone 2E2) (antibody)” had a Kd of 20 nM. In addition, in test [1], the % remaining activity at 0.003 µg/ml, BWZ/hTREM-1 reporter assay came to 98%; the % remaining activity at 0.03 µg/ml, BWZ/hTREM-1 reporter assay is 104%; the % remaining activity at 0.3 µg/ml, BWZ/hTREM-1 reporter assay stood at 86%.

“type II PGLYRP1 on transiently transfected HEK cells (ligand)”: in test [1], the TNF-a release, RA synovial tissue cells, IgG4 + Type II cells, 1 × 10^4 HEK cells came out at 95 pg/mL; the TNF-a release, RA synovial tissue cells, IgG4 + Type II cells, 1 × 10^5 HEK cells amounted to 121 pg/mL; the TNF-a release, RA synovial tissue cells, IgG4 + Type II cells, 3 × 10^3 HEK cells is 54.6 pg/mL; the TNF-a release, RA synovial tissue cells, IgG4 + Type II cells, 3 × 10^3 HEK cells (second column so headed) stood at 57.9 pg/mL. In test [1], the TNF-a release, RA synovial tissue cells, IgG4 + Type II cells, 3 × 10^4 HEK cells is 114 pg/mL.

Regarding “human PGLYRP1 (from UniProt O75594 22-196) (ligand)”, in test [1], the GM-CSF, RA synovial tissue cells, PGN + PGLYRP1 was 616 pg/mL; the IL-1beta, RA synovial tissue cells, PGN + PGLYRP1 is 3770 pg/mL; the IL-6, RA synovial tissue cells, PGN + PGLYRP1 came to 4190 pg/mL; the IL-8, RA synovial tissue cells, PGN + PGLYRP1 amounted to 5510 pg/mL. In addition, in test [1], the MCP-1, RA synovial tissue cells, PGN + PGLYRP1 was 471 pg/mL; the MIP-1beta, RA synovial tissue cells, PGN + PGLYRP1 was 4400 pg/mL; the TNFa, normoxic M2 macrophages, PGN-BS + PGLYRP1, Donor 1 Avg is 728 pg/mL; the TNFa, normoxic M2 macrophages, PGN-BS + PGLYRP1, Donor 2 Avg worked out at 771 pg/mL. Besides, the TNFalpha, RA synovial tissue cells, PGN + PGLYRP1 in test [1] was determined as 1440 pg/mL. In test [3], the TNF-α, cyno M2 macrophages, PGN + PGRP-S, Donor 1 Avg was 295 pg/mL and the TNF-α, cyno M2 macrophages, PGN + PGRP-S, Donor 2 Avg turned out to be 307 pg/mL.

In turn, “TREM-26 (Biolegend, cat. nos. 314902 and 314907) (antibody)” showed a Kd in test [2] of 0.9 nM. Also, in test [1], the % remaining activity at 0.003 µg/ml, BWZ/hTREM-1 reporter assay came to 100%; the % remaining activity at 0.03 µg/ml, BWZ/hTREM-1 reporter assay came out at 124%; the % remaining activity at 0.3 µg/ml, BWZ/hTREM-1 reporter assay turned out to be 108%; the Luminescence × 10E6, BWZ/hTREM-1 reporter cells + activated neutrophils worked out at 9.9e+06 luminescence. In addition, in test [1], the normalised reporter signal, antibody at 1 µg/ml (FIG. 3) was over 1. Also, in test [3], the % remaining cyno TREM-1 activity at 0.74 ug/ml, reporter assay came out at 104% and the % remaining cyno TREM-1 activity at 20 ug/ml, reporter assay is 87.7%. This substance also displayed a Kd in test [4] of 4 nM.
